# Source: the DeepSol protein solubility set
# Test: soluble on expression in E. coli; label from the status in PepcDB or PDB records
row,Sequence,soluble on expression in E. coli
1,SLVDLAADILVADAHMHTNPTRGLGAREVARRFRREGGWFAALLTLTTWSYGLAPTGVEAYRRMYEIHLRECRAAREEGLRVACFAGIHPAEVDRMIDKHRQPPEKALETALEAVEVLRRLCREGAIDGVGEVGRQHYRTSPLRVAIAEVVLEEAAAAALEEGCLLQLHLENEGPATVETVDRILRRAGATGARRGMVIFHHATLRVAKEAVARGYNATIPGVPKLLEHAAANEPPDYMVESDYLDDPARPGAVVEPWKMAQKLREIASRTPETREWVRRTNIDLVERVFQASPP,not soluble
2,SLVIIYDGDSYGISKRIDYMLNSTTSSGKRTGILAIGAHPDDIELGCGASLSYYSNEKVYIISVVMTPGCCGAEYIDRHKESQEALNMLGCNKLIPLNFEDTRLYLQIKEMISSLEYIIENETPQDVEITRVYTMNNTDRHQDHIAVYQASMVACRYIPQILGYETPSTCLSFLPQVFESVDEVHFNKKILALQKHKSQIHRRYIQPEYIIAQAKFRGQQVSHSMCEGFVVHKMVL,soluble
3,SLVTLGEGFEKARLTRFLEKFGGNEGSQFLYLKDYGHFYYQEEGEDQVLFGFQMKFNKCFVLADPIGQREKWTAATLAFMDQADLLGYQLVFYRISEEYVMNLHDCGFEFMKVGEEGLIQFDEPSTVNQTAWTETVTEKIAAEAADFQFEFYPETISDALYQELERVSADWSRNQKERYFIGGRLDPEYLKCSSVGLVRQKQTVIGFITGKEMEKGKSISYDLLRIRSDAPAFTREYLFTHFIETYQQQGYQLIDIGMAPLANVGESKYSFLKERFVNIFYKYSYQIYAFQDTRKRKEQYVTSWQPRYFAYPKRTSVLFAFVQLSLLITKGRHQSVSLVEEAMTEI,not soluble
4,SMFEIKKICCIGAGYVGGPTCSVIAHMCPEIRVTVVDVNESRINAWNSPTLPIYEPGLKEVVESCRGKNLFFSTNIDDAIKEADLVFISVNTPTKTYGMGKGRAADLKYIEACARRIVQNSNGYKIVTEKSAVPVRAAESIRRIFDANTKPNLNLQVLSNPEFLAEGTAIKDLKNPDRVLIGGDETPEGQRAVQALCAVYEHWVPREKILTTNTWSSELSKLAANAFLAQRISSINSISALCEATGADVEEVATAIGMDQRIGNKFLKASVGFGGSCFQKDVLNLVYLCEALNLPEVARYWQQVIDMNDYQRRRFASRIIDSLFNTVTDKKIAILGFAFKKDTGDTRESSSIYISKYLMDEGAHLHIYDPKVPREQIVVDLSHPGVSEDDQVSRLVTISKDPYEACDGAHAVVICTEWDMFKELDYERIHKKMLKPAFIFDGRRVLDGLHNELQTIGFQIETIGKKV,soluble
5,SMQEKIMRELHVKPSIDPKQEIEDRVNFLKQYVKKTGAKGFVLGISGGQDSTLAGRLAQLAVESIREEGGDAQFIAVRLPHGTQQDEDDAQLALKFIKPDKSWKFDIKSTVSAFSDQYQQETGDQLTDFNKGNVKARTRMIAQYAIGGQEGLLVLGTDHAAEAVTGFFTKYGDGGADLLPLTGLTKRQGRTLLKELGAPERLYLKEPTADLLDEKPQQSDETELGISYDEIDDYLEGKEVSAKVSEALEKRYSMTEHKRQVPASMFDDWWK,soluble
6,SMSAGPWKMVVWDEDGFQGRRHEFTAECPSVLELGFETVRSLKVLSGAWVGFEHAGFQGQQYILERGEYPSWDAWGGNTAYPAERLTSFRPAACANHRDSRLTIFEQENFLGKKGELSDDYPSLQAMGWEGNEVGSFHVHSGAWVCSQFPGYRGFQYVLECDHHSGDYKHFREWGSHAPTFQVQSIRRIQQ,soluble
7,SMSDVTIVKEGWVQKRGEYIKNWRPRYFLLKTDGSFIGYKEKPQDVDLPYPLNNFSVAKCQLMKTERPKPNTFIIRCLQWTTVIERTFHVDTPEEREEWTEAIQAVADRLQRQEEERMN,soluble
8,SNAAQQVQQPVAQQQVQQPAQQNTNTANAGGNQNQAAPVQNQPVAQPTDIDGTYTGQDDGDRITLVVTGTTGTWTELESDGDQKVKQVTFDSANQRMIIGDDVKIYTVNGNQIVVDDMDRDPSDQIVLTK,soluble
9,SNAEMSYELAQHGRSTLPRELAVYALEGPFFFAAAETFERVMGSIQETPQILILRLKWVPFMDITGIQTLEEMIQSFHKRGIKVLISGANSRVSQKLVKAGIVKLVGEQNVYPVFEGALSAALTEIEAQP,soluble
10,SNALSASEERFQLAVSGASAGLWDWNPKTGAMYLSPHFKKIMGYEDHELPDEITGHRESIHPDDRARVLAALKAHLEHRDTYDVEYRVRTRSGDFRWIQSRGQALWNSAGEPYRMVGWIMDVTDRKRDEDALRVSREELRRL,soluble
11,SNAMADWVTGKVTKVQNWTDALFSLTVHAPINPFTAGQFTKLGLEIDGERVQRAYSYVNAPDNPNLEFYLVTVPQGKLSPRLAALKPGDEVQVVSDASGFFVLDEVPDCETLWMLATGTAIGPYLSILQYGQDVARFKNLVLVHAARFAADLSYLPLMLELQQRYEGKLRIQTVVSRENVPGSLTGRVPALIENGELEKAVGLPMDKETSHVMLCGNPQMVRDTQQLLKETRQMTKHLRRRPGHMTAEHYW,soluble
12,SNAMELEQKLNLLNDLIVREIVNPLPPPYKVGVDLGTADIVLVVTDQEGIPVAGALKWASVVKDGLVVDYIGAIQIVRELKAKVERLLGSELFQAATAIPPGTVGRNAEACGHVVAGAGLELVTLVDEPVAAARALGINDGIVVDIGGGTTGIAVIEKGKITATFDEPTGGTHLSLVLAGSYKIPFEEAETIKKDFSRHREIMRVVRPVIEKMALIVKEVIKNYDQTLPVYVVGGTAYLTGFSEEFSRFLGKEVQVPIHPLLVTPLGIALFG,soluble
13,SNAMIIADNIKQFHSIRNSLIKQQKIGFVPTMGALHNGHISLIKKAKSENDVVIVSIFVNPTQFNNPNDYQTYPNQLQQDIQILASLDVDVLFNPSEKDIYPDGNLLRIEPKLEIANILEGKSRPGHFSGMLTVVLKLLQITKPNNLYLGEKDYQQVMLIKQLVKDFFINTKIIVCPTQRQPSGLPLSSRNKNLTSTDIEIANKIYEILRQDDFSNLEELTNKINSTGAKLQYIQKLNNRIFLAFYIGKVRLIDNFLKETGPSC,soluble
14,SNAMIKRPIHMSHDFLAEVLDDESIVVDATMGNGNDTAFLAGLSKKVYAFDVQEQALGKTSQRLSDLGIENTELILDGHENLDHYVREPIRAAIFNLGYLPSADKSVITKPHTTLEAIEKILDRLEVGGRLAIMIYYGHDGGDMEKDAVLEYVIGLDQRVFTAMLYQPLNQINTPPFLVMLEKLQ,soluble
15,SNAMILSQQKYNYLAKVSDSNGVISALAFDQRGALKCLMAQYQMKEPTVAQMEELKVLVSEELTPYASSILLDPEYGLPAAQARDREAGLLLAYEKTGYDANTTSRLPDCLVDWSIKRLKEAGADAVKFLLYYDVDGDPQVNVQKQAYIERIGSECQAEDIPFFLEILTYDETISNNSSVEFAKVKVHKVNDAMKVFSAERFGIDVLKVEVPVNMVYVEGFAEGEVVYSKEEAAQAFREQEASTDLPYIYLSAGVSAELFQETLVFAHKAGAKFNGVLCGRATWAGSVQVYMEEGKEAARQWLRTSGLQNINELNKVLKTTASPWTEKVSVG,soluble
16,SNAMKDKIIDNAITLFSEKGYDGTTLDDIAKSVNIKKASLYYHFDSKKSIYEQSVKCCFDYLNNIIMMNQNKSNYSIDALYQFLFEFIFDIEERYIRMYVQLSNTPEEFSGNIYGQIQDLNQSLSKEIAKFYDESKIKMTKEDFQNLILLFLESWYLKASFSQKFGAVEESKSQFKDEVYSLLNIFLKK,soluble
17,SNAMLKREMNIADYDAELWQAMEQEKVRQEEHIELIASENYTSPRVMQAQGSQLTNKYAEGYPGKRYYGGCEYVDVVEQLAIDRAKELFGADYANVQPHSGSQANFAVYTALLQPGDTVLGMNLAQGGHLTHGSPVNFSGKLYNIVPYGIDESGKIDYDEMAKLAKEHKPKMIIGGFSAYSGVVDWAKMREIADSIGAYLFVDMAHVAGLIAAGVYPNPVPHAHVVTTTTHKTLAGPRGGLILAKGGDEELYKKLNSAVFPSAQGGPLMHVIAGKAVALKEAMEPEFKVYQQQVAKNAKAMVEVFLNRGYKVVSGGTENHLFLLDLVDKNLTGKEADAALGRANITVNKNSVPNDPKSPFVTSGIRIGSPAVTRRGFKEAEVKELAGWMCDVLDNINDEATIERVKAKVLDICARFPVYA,soluble
18,SNAMNNTQKKLKVLFIGESWHIHMIHSKGYDSFTSSKYEEGATWLLECLRKGGVDIDYMPAHTVQIAFPESIDELNRYDVIVISDIGSNTFLLQNETFYQLKIKPNALESIKEYVKNGGGLLMIGGYLSFMGIEAKANYKNTVLAEVLPVIMLDGDDRVEKPEGICAEAVSPEHPVVNGFSDYPVFLGYNQAVARDDADVVLTINNDPLLVFGEYQQGKTACFMSDCSPHWGTQQFMSWPFYTDLWVNTLQFIARK,soluble
19,SNAMPMTLDLQPGQRLARGVARHLRAHGFVSVEEFVPARGLRVDVMGLGPKGEIWVIECKSSRADFQADAKWQGYLEWCDRYFWAVDMEFPAELLPAESGLLIADAYDAEIVRMAPEQKLAPARRKVLIQKFATHAARRLQALRDPEGHGIFE,soluble
20,SNAMRMIDIIEKKRDGHTLTTEEINFFIGGYVKGDIPDYQASSLAMAIYFQDMNDDERVALTMAMVNSGDMIDLSDIKGVKVDKHSTGGVGDTTTLVLAPLVAAVDVPVAKMSGRGLGHTGGTIDKLEAIDGFHVEIDEATFVKLVNENKVAVVGQSGNLTPADKKLYALRDVTGTVNSIPLIASSIMSKKIAAGADAIVLDVKTGSGAFMKTLEDAEALAHAMVRIGNNVGRNTMAIISDMNQPLGRAIGNALELQEAIDTLKGQGPKDLTELVLTLGSQMVVLANKAETLEEARALLIEAINSGAALEKFKTFIKNQGGDETVIDHPERLPQAQYQIEYKAKKSGYVTELVSNDIGVASMMLGAGRLTKEDDIDLAVGIVLNKKIGDKVEEGESLLTIHSNRQDVDDVVKKLDSSITIADHVVSPTLIHKIITE,soluble
21,SNAYRGPEAFLKLPKDLKDREALQDIMQDIGNSDDILAAVVLSATPGAVEAFRKNGETIRITGDGLKAAHRFLSNDPKIGEKRIRPGALIRVKKTEKGSWQIVQLP,soluble
22,SNEGKELSTFCRKFEVPLRKALEKAGRLVDDPGRPRLLLTFISGRRVFVGVASASNSALWPMGIPRLKFPREAPSRSTLKLEEAWHQFIPREQWEQRLGDDMTGVDLGASPGGWTYQLVRRGMLVTAIDNGPMAESLMDTGLVQHLMADGFTWQPKQPVDWMVCDIVEKPARTTSLIETWLGEGLCREAVVNLKLPMKQRYAEVRRLLDRMEATFKARKIRVSIACKQLYHDREEVTCHLRRLDLK,not soluble
23,SNRVNDPLIFIRDIKPGLKNLNVVFIVLEIGRVTKTKDGHEVRSCKVADKTGSITISVWDEIGGLIQPGDIIRLTRGYASMWKGCLTLYTGRGGELQKIGEFCMVYSEVPNFSEPNPDYRGQQNKGAQSEQKNNSMNSNMGTGTFGPVGNGVHTGPESREHQFSHAGRSNGRGLINPQLQGTASNQTVMTTISNGRDPRRAFKR,soluble
24,SPAKTPIYLKSNYSKKGKKCRLRDILSPDMISPPLGDFRHTIHIGKGGECDAFGDMSFLQGNFELLPGKGGRVRPQYGLHGEFTRANSASDASYVETPSPVLKNAISLPTIGGSQALTLPMISTTVFPMTHDNMSEPSTPPAGSEDLEILQMETLLQSISIFRSDPSPVPEEDEPMIDRMEMNEKSCMKKMHSSEKELETFLSVFVNGNGDANGNFNNGNNGDSVFQYEQDMFSIKGDWADRDSGVEEGRLCDSDFEISKSKSQSQESLPQITGSLFSLELDLGPSILDDVLNIMNKPVS,soluble
